The results in this text go back to US20220177587A1, “METHODS AND USES OF VARIANT CD80 FUSION PROTEINS AND RELATED CONSTRUCTS” (Alpine Immune Sciences, Inc., priority 2018, published 2022).

Substitutions are numbered along the chain they refer to. Names and notes keep the numbering of the source.

B1: T28S/L70Q/A91G/E95K/I118V/T120S/I126V/T130A/K169E (protein, UniProt P33681 35-288, looked up, variant T28S L70Q A91G E95K I118V T120S I126V T130A K169E)
T-lymphocyte activation …: VIHVTKEVKEVATLSCGHNVSVEELAQSRIYWQKEKKMVLTMMSGDMNIWPEYKNRTIFDITNNLSIVIQALRPSDEGTYECVVLKYEKDGFKRKHLAEVTLSVKADFPTPSISDFEVPSSNIRRVICSASGGFPEPHLSWLENGEELNAINTTVSQDPETELYAVSSELDFNMTTNHSFMCLIKYGHLRVNQTFNWNTTKQEHFPDNLLPSWAITLISVNGIFVICCLTYCFAPRCRERRRNERLRRESVRPV
B2: A91G/T120S/I118V/T130A (protein)
chain: VIHVTKEVKEVATLSCGHNVSVEELAQTRIYWQKEKKMVLTMMSGDMNIWPEYKNRTIFDITNNLSIVILALRPSDEGTYECVVLKYEKDGFKREHLAEVTLSVKADFPTPSISDFEVPSSNIRRIICSASGGFPEPHLSWLENGEELNAINTTVSQDPETELYAVSSKLDFNMTTNHSFMCLIKYGHLRVNQTFNWNTTKQEHFPDN
B3: A91G/S103P (protein)
chain: B2 chain with S103P, V118I, S120T, A130T
B4: K89E/T130A (protein)
chain: B2 chain with K89E, G91A, V118I, S120T
modifications: CD80 v19 ECD
B5: L70R/A91G/I118V/T120S/T130A/T199S (protein)
chain: B2 chain with L70R, T199S
modifications: CD80 v130 ECD
B6: R29H/E52G/D90N/I118V/T120S/T130A (protein)
chain: B2 chain with R29H, E52G, D90N, G91A
modifications: CD80 v142 ECD
B7: I67T/L70Q/A91G/I118V/T120S (protein)
chain: B2 chain with I67T, L70Q, A130T, N196H
modifications: CD80 v144 ECD
B8: V68A/T110A (protein)
chain: B2 chain with V68A, G91A, T110A, V118I, S120T, A130T
modifications: CD80 v26 ECD
B9: R29H/E52G/L70R/E88G/A91G/T130A (protein)
chain: B2 chain with R29H, E52G, L70R, E88G, V118I, S120T
modifications: CD80 v24 ECD
B10: A91G (protein)
chain: B2 chain with V118I, S120T, A130T
B11: A91G/L102S (protein)
chain: B2 chain with L102S, V118I, S120T, A130T
B12: Y31H/T41G/M43L/L70Q/A91G/I118V/T120S//I126V/T130A (protein)
chain: B2 chain with Y31H, T41G, M43L, L70Q, I126V
B13: M38T/L70Q/E77G/A91G/I118V/T120S/T130A/N152T (protein)
chain: B2 chain with M38T, L70Q, E77G, N152T
B14: N63S/L70Q/A91G/S114T/I118V/T120S/T130A (protein)
chain: B2 chain with N63S, L70Q, S114T, H188D
modifications: CD80 v133 ECD
B15: D60V/A91G/I118V/T120S/T130A/K169E (protein)
chain: B2 chain with D60V, K169E
modifications: CD80 v137 ECD
B16: L65H/D90G/T110A/F116L (protein)
chain: B2 chain with L65H, D90G, G91A, T110A, F116L, V118I, S120T, A130T
modifications: CD80 v141 ECD
B17: L70Q/A91G/T110A/I118V/T120S/T130A (protein)
chain: B2 chain with L70Q, T110A
modifications: CD80 v145 ECD
B18: K36E/I67T/L70Q/A91G/I118V/T1205/T130A/N152T (protein)
chain: B2 chain with K36E, I67T, L70Q, N152T
B19: K37E/F595/L70Q/A91G/T120S/T130A (protein)
chain: B2 chain with K37E, F59S, L70Q, K185E
B20: E52G/L70Q/A91G/D107N/I118V/T1205/T130A/K169E (protein)
chain: B2 chain with E52G, L70Q, D107N, K169E
B21: L70Q/Y87N/A91G/T130A (protein)
chain: B2 chain with L70Q, Y87N, V118I, S120T
modifications: CD80 v12 ECD
B22: V22A/L70Q/S121P (protein)
chain: B2 chain with V22A, L70Q, G91A, V118I, S120T, S121P, A130T
modifications: CD80 v33 ECD
B23: K54M/L70Q/A91G/Y164H (protein)
chain: B2 chain with K54M, L70Q, V118I, S120T, A130T, Y164H, H188D
modifications: CD80 v138 ECD
B24: L70Q/E81A/A91G/I118V/T120S/I127T/T130A (protein)
chain: B2 chain with L70Q, E81A, I127T
modifications: CD80 v131 ECD
B25: M38V/T41D/M43I/W50G/D76G/V83A/K89E/I118V/T120S/I126V/T130A (protein)
chain: B2 chain with M38V, T41D, M43I, W50G, D76G, V83A, K89E, G91A, I126V

For the first experiment, the system named is allogeneic CD4+ T cells. The experiment is described as follows: Mixed Lymphocyte Reaction (MLR), IFN-gamma. To be noted: Table E32; variant ECD-Fc in MLR assay; culture supernatant. The format is cell-based, human. The procedure:
Soluble rCD80.Fc bioactivity was tested in a human Mixed Lymphocyte Reaction (MLR). Human primary dendritic cells (DC) were generated by culturing monocytes isolated from PBMC (BenTech Bio, USA) in vitro for 7 days with 500U/ml rIL-4 (R&D Systems, USA) and 250 U/ml rGM-CSF (R&D Systems, USA) in Ex-Vivo 15 media (Lonza, Switzerland). 10,000 matured DC and 100,000 purified allogeneic CD4+ T cells (BenTech Bio, USA) were co-cultured with variant CD80 Fc fusion proteins and controls in 96 well round bottom plates in 200 μl final volume of Ex-Vivo 15 media. On day 5, IFN-gamma secretion in culture supernatants was analyzed using the Human IFN-gamma Duoset ELISA kit (R&D Systems, USA). Optical density was measured by VMax ELISA Microplate Reader (Molecular Devices, USA) and quantitated against titrated rIFN-gamma standard included in the IFN-gamma Duo-set kit (R&D Systems, USA).
As for B1, the “MLR IFN-gamma levels” value turned out to be 834 pg/mL.

On to B2, for which the “MLR IFN-gamma levels” value was 714 pg/mL.

On to B3, for which the “MLR IFN-gamma levels” value stood at 670 pg/mL.

For the molecule B4, the “MLR IFN-gamma levels” value stood at 761 pg/mL.

As to B5, the “MLR IFN-gamma levels” value was 702 pg/mL.

As for B6, the “MLR IFN-gamma levels” value was 800 pg/mL.

As to B7, the “MLR IFN-gamma levels” value amounted to 794 pg/mL.

On to B8, for which the “MLR IFN-gamma levels” value came out at 861 pg/mL.

Consider B9, for which the “MLR IFN-gamma levels” value turned out to be 740 pg/mL.

For the molecule B10, the “MLR IFN-gamma levels” value came out at 877 pg/mL.

With B11, the “MLR IFN-gamma levels” value stood at 698 pg/mL.

Consider B12, for which the “MLR IFN-gamma levels” value was determined as 782 pg/mL.

With B13, the “MLR IFN-gamma levels” value is 796 pg/mL.

In the case of B14, the “MLR IFN-gamma levels” value is 705 pg/mL.

B15: the “MLR IFN-gamma levels” value came out at 744 pg/mL.

With B16, the “MLR IFN-gamma levels” value came out at 758 pg/mL.

B17: the “MLR IFN-gamma levels” value is 656 pg/mL.

Turning to B18, the “MLR IFN-gamma levels” value is 852 pg/mL.

Regarding B19, the “MLR IFN-gamma levels” value is 863 pg/mL.

As to B20, the “MLR IFN-gamma levels” value came to 874 pg/mL.

As to B21, the “MLR IFN-gamma levels” value stood at 769 pg/mL.

For the molecule B22, the “MLR IFN-gamma levels” value came out at 976 pg/mL.

For the molecule B23, the “MLR IFN-gamma levels” value was determined as 685 pg/mL.

B24: the “MLR IFN-gamma levels” value turned out to be 772 pg/mL.

Turning to B25, the “MLR IFN-gamma levels” value came to 671 pg/mL.

For a further experiment, the system named is human pan T cells. The experiment is described as follows: Anti-CD3 coimmobilization assay, IFN-gamma. The experiment is classed as cell-based. To be noted: Table E32; variant ECD-Fc coimmobilized with anti-CD3; culture supernatant. In a few lines:
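Plates coated overnight with 1 nM or 4 nM OKT3 anti-CD3 plus 1–80 nM rCD80.Fc variants, then washed. Purified human pan T cells or BC3 T cell clone (100,000/well) cultured 3 days in Ex-Vivo 15; supernatant IFN-gamma measured by ELISA.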
As to B1, the “Coimmobilization with anti CD3 IFN-gamma” value was found to be 120 pg/mL.

For B2, the “Coimmobilization with anti CD3 IFN-gamma” value amounted to 276 pg/mL.

In the case of B3, the “Coimmobilization with anti CD3 IFN-gamma” value amounted to 124 pg/mL.

B4: the “Coimmobilization with anti CD3 IFN-gamma” value was 204 pg/mL.

With B5, the “Coimmobilization with anti CD3 IFN-gamma” value worked out at 105 pg/mL.

Turning to B6, the “Coimmobilization with anti CD3 IFN-gamma” value worked out at 124 pg/mL.

For the molecule B7, the “Coimmobilization with anti CD3 IFN-gamma” value came out at 1751 pg/mL.

Consider B8, for which the “Coimmobilization with anti CD3 IFN-gamma” value is 163 pg/mL.

Consider B9, for which the “Coimmobilization with anti CD3 IFN-gamma” value was 200 pg/mL.

Consider B10, for which the “Coimmobilization with anti CD3 IFN-gamma” value was found to be 220 pg/mL.

On to B11, for which the “Coimmobilization with anti CD3 IFN-gamma” value stood at 75 pg/mL.

Turning to B12, the “Coimmobilization with anti CD3 IFN-gamma” value turned out to be 288 pg/mL.

On to B13, for which the “Coimmobilization with anti CD3 IFN-gamma” value is 119 pg/mL.

With B14, the “Coimmobilization with anti CD3 IFN-gamma” value amounted to 116 pg/mL.

For the molecule B15, the “Coimmobilization with anti CD3 IFN-gamma” value came to 120 pg/mL.

For B16, the “Coimmobilization with anti CD3 IFN-gamma” value stood at 129 pg/mL.

Take B17: the “Coimmobilization with anti CD3 IFN-gamma” value is 77 pg/mL.

On to B18, for which the “Coimmobilization with anti CD3 IFN-gamma” value was found to be 53 pg/mL.

Turning to B19, the “Coimmobilization with anti CD3 IFN-gamma” value turned out to be 109 pg/mL.

On to B20, for which the “Coimmobilization with anti CD3 IFN-gamma” value is 94 pg/mL.

With B21, the “Coimmobilization with anti CD3 IFN-gamma” value was 136 pg/mL.

On to B22, for which the “Coimmobilization with anti CD3 IFN-gamma” value amounted to 105 pg/mL.

In the case of B23, the “Coimmobilization with anti CD3 IFN-gamma” value turned out to be 152 pg/mL.

B24: the “Coimmobilization with anti CD3 IFN-gamma” value is 98 pg/mL.

For B25, the “Coimmobilization with anti CD3 IFN-gamma” value was determined as 82 pg/mL.
